Data from patent US20170044230A1 (USTAV ORGANICKE CHEMIE A BIOCHEMIE AV CR, V.V.I., priority 2014, published 2017).
Non-standard residues stand in square brackets, D forms with d. Residues, ends and D or L forms follow the SMILES beside them. No end group written: not given here. *: point of attachment. 1Nal = N[C@@H](Cc1cccc2ccccc12)C(=O)O; Palmitoyl = CCCCCCCCCCCCCCCC(=O)*; Myristoyl = CCCCCCCCCCCCCC(=O)*; Cha = N[C@@H](CC1CCCCC1)C(=O)O; Decanoyl = CCCCCCCCCC(=O)*; Dap = NC[C@H](N)C(=O)O; Sar = CNCC(=O)O

Key:
human GHS-R1a receptor = target: T1, human GHS-R1a receptor (Homo sapiens, UniProt Q92847); assay: Competitive binding studies (displacement of 125I-ghrelin); details: for affinity for GHS-R1a compared with ghrelin: in words; for % of ghrelin binding: relative to ghrelin = 100
T1 construct: purchased Multispan, Hayward, Calif., USA; host or cells: HEK293T cells, isolated plasma membranes
T1 sequence (Q92847 whole entry): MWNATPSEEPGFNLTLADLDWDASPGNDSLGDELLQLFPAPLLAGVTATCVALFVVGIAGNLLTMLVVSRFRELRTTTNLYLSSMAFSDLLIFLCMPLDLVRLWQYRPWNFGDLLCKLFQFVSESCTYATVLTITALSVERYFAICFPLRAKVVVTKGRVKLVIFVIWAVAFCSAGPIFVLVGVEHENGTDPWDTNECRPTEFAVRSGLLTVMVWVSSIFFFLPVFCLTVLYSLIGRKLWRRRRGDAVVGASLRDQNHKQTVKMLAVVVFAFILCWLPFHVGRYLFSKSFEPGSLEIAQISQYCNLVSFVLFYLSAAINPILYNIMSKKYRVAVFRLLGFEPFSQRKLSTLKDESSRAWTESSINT
Procedure: Isolated plasma membranes from the HEK293T cells with transfected human GHS-R1a receptor (Multispan, Hayward, Calif., USA) were used. […] Experiments were carried out in duplicates at least three times. Competitive binding curves were plotted using GraphPad Prism Software (San Diego, Calif., USA) while comparing the best fit for single binding sites models.

fed C57BL/6 male mice = assay: Effect of SC administered ghrelin analogs on food intake; type: in vivo; details: for maximal effect at 5 mg/kg on food intake: SC 5 mg/kg, evaluated 480 min after administration; for ED50 (250 min after injection), effect on food intake: SC, fed mice
Procedure: All of the experiments followed the ethical guidelines for animal experiments and Czech Republic law 246/1992 and were approved by the committee for experiments with laboratory animals of the Academy of Sciences of the Czech Republic. Male C57BL/6 mice (Charles River, Germany) were housed at a temperature 22±2° C. under a daily cycle of 12/12 h light/dark (light from 6:00) with free access to water and a standard chow diet St-1 which contained […] of calories from protein, fat and carbohydrate, respectively, and its energy content was 3.4 kcal/g (Mlýn Kocanda, Praha, Czech Republic). Mice were placed into separate cages for one week before experiment, they had free access to water and food pellets. Closely before the experiment, the food pellets were removed from the cages. […] 15 min after the injection, mice were given preweighed food pellets. Food intake was monitored for 8-10 hours at 30-min intervals. Mice had free access to water during the experiment. Experiments were performed at least twice for each tested compound, each experimental group had at least 5 mice.
Data from food intake experiments were analyzed by one-way ANOVA followed by Dunnett's post-hoc test using GraphPad Prism Software (San Diego, Calif., USA), P<0.05 was considered statistically significant. ED50 values were calculated using GraphPad Prism Software as the dose of the tested compound required to elicit half-maximal effect at 250 min after administration of the corresponding compound.
Food intake was monitored for […] after administration of the compounds. ED50 values were determined 250 min after administration. Maximal effect on food intake was evaluated […] after administration of the compounds at a dose of 5 mg/kg of body weight. NT—not tested.

[1] = target: T2, human GHS-R1a receptor (growth hormone secretagogue receptor 1a) (human, UniProt Q92847 1-366); assay: competitive displacement of 125I-ghrelin, membranes of HEK293T cells with transfected human GHS-R1a
T2 construct: whole, on cells; Functional assays: HEK-293T cells transiently transfected with human GHS-R1a; also called ghrelin receptor
T2 sequence (Q92847 whole entry): as above
Procedure: Competitive binding studies were performed according to the principles of Motulsky and Neubig (Motulsky & Neubig, 2002). Isolated plasma membranes from the HEK293T cells with transfected human GHS-R1a receptor (Multispan, Hayward, Calif., USA) were used. […] The binding reaction was stopped by the addition of ice-cold washing buffer (20 mM Tris pH 7.4, 10 mM MgCl₂, 2.5 mM EDTA, 0.015% Triton X-100) followed by rapid filtration over GF/C filters (Whatman, Clifton, N.J., USA) presoaked with 0.5% PEI in binding buffer using a Brandel cell harvester (Brandel Inc., Gaithersburg, Md., USA). Bound radioactivity was determined by gamma counting (Wizard 1470 Automatic Gamma Counter; PerkinElmer Life and Analytical Sciences, Waltham, Mass.).

[2] = target: T2, human GHS-R1a receptor (growth hormone …); assay: cell-based or functional assay

% of ghrelin binding (human GHS-R1a receptor)	% of ghrelin binding [1]	Ki [1]	IP1 - EC50 [nM] (inositol phosphate accumulation, IP-One HTRF) [2]	Ca^2+ - EC50 [nM] (intracellular calcium mobilization, Fluo-4AM) [2]	Molecule	affinity for GHS-R1a compared with ghrelin (human GHS-R1a receptor)	maximal effect at 5 mg/kg on food intake (fed C57BL/6 male mice)	ED50 (250 min after injection), effect on food intake (fed C57BL/6 male mice)
183%					CCCCCCCCCC(=O)NC[C@H](NC(=O)[C@H](CO)NC(=O)CNC)C(=O)N[C@@H](Cc1ccccc1)C(=O)N[C@@H](CC(C)C)C(=O)N[C@@H](CO)C(=O)N1CCC[C@H]1C(=O)N[C@@H](CCC(=O)O)C(=O)N[C@@H](Cc1c[nH]cn1)C(=O)N[C@@H](CCC(N)=O)C(=O)N[C@@H](CCCCN)C(=O)N[C@@H](C)C(=O)N[C@@H](CCC(N)=O)C(=O)N[C@@H](CCC(N)=O)C(=O)N[C@@H](CCCNC(=N)N)C(=O)N[C@@H](CCCCN)C(=O)N[C@@H](CCC(=O)O)C(=O)N[C@@H](CO)C(=O)N[C@@H](CCCCN)C(=O)N[C@@H](CCCCN)C(=O)N1CCC[C@H]1C(=O)N1CCC[C@H]1C(=O)N[C@@H](C)C(=O)N[C@@H](CCCCN)C(=O)N[C@@H](CC(C)C)C(=O)N[C@@H](CCC(N)=O)C(=O)N1CCC[C@H]1C(=O)N[C@@H](CCCNC(=N)N)C(=O)O [Analog 1]	higher affinities for GHS-R1a than ghrelin	218.8 % of Dpr^3ghr	3.90 mg/kg
176%					CCCCCCCCCC(=O)NC[C@H](NC(=O)[C@H](CO)NC(=O)CNC)C(=O)N[C@@H](Cc1cccc2ccccc12)C(=O)N[C@@H](CC(C)C)C(=O)N[C@@H](CO)C(=O)N1CCC[C@H]1C(=O)N[C@@H](CCC(=O)O)C(=O)N[C@@H](Cc1c[nH]cn1)C(=O)N[C@@H](CCC(N)=O)C(=O)N[C@@H](CCCCN)C(=O)N[C@@H](C)C(=O)N[C@@H](CCC(N)=O)C(=O)N[C@@H](CCC(N)=O)C(=O)N[C@@H](CCCNC(=N)N)C(=O)N[C@@H](CCCCN)C(=O)N[C@@H](CCC(=O)O)C(=O)N[C@@H](CO)C(=O)N[C@@H](CCCCN)C(=O)N[C@@H](CCCCN)C(=O)N1CCC[C@H]1C(=O)N1CCC[C@H]1C(=O)N[C@@H](C)C(=O)N[C@@H](CCCCN)C(=O)N[C@@H](CC(C)C)C(=O)N[C@@H](CCC(N)=O)C(=O)N1CCC[C@H]1C(=O)N[C@@H](CCCNC(=N)N)C(=O)O [Analog 3] (H-[Sar]S[Dap](Decanoyl)[1Nal]LSPEHQKAQQRKESKKPPAKLQPR-OH; N-terminus and C-terminus assumed)	higher affinities for GHS-R1a than ghrelin	220.3 % of Dpr^3ghr	0.64 mg/kg
110%					CCCCCCCCCC(=O)NC[C@H](NC(=O)[C@H](CO)NC(=O)CNC)C(=O)N[C@@H](CC1CCCCC1)C(=O)N[C@@H](CC(C)C)C(=O)N[C@@H](CO)C(=O)N1CCC[C@H]1C(=O)N[C@@H](CCC(=O)O)C(=O)N[C@@H](Cc1c[nH]cn1)C(=O)N[C@@H](CCC(N)=O)C(=O)N[C@@H](CCCCN)C(=O)N[C@@H](C)C(=O)N[C@@H](CCC(N)=O)C(=O)N[C@@H](CCC(N)=O)C(=O)N[C@@H](CCCNC(=N)N)C(=O)N[C@@H](CCCCN)C(=O)N[C@@H](CCC(=O)O)C(=O)N[C@@H](CO)C(=O)N[C@@H](CCCCN)C(=O)N[C@@H](CCCCN)C(=O)N1CCC[C@H]1C(=O)N1CCC[C@H]1C(=O)N[C@@H](C)C(=O)N[C@@H](CCCCN)C(=O)N[C@@H](CC(C)C)C(=O)N[C@@H](CCC(N)=O)C(=O)N1CCC[C@H]1C(=O)N[C@@H](CCCNC(=N)N)C(=O)O [Analog 5] (H-[Sar]S[Dap](Decanoyl)[Cha]LSPEHQKAQQRKESKKPPAKLQPR-OH; N-terminus and C-terminus assumed)	higher affinities for GHS-R1a than ghrelin	204.5 % of Dpr^3ghr	1.02 mg/kg
	76%	1.51 nM			XSXFLSPEHQKAQQRKESKKPPAKLQPR (sarcosine (Sar) at position 1; diaminopropionic acid N-9-decenoyl (Dpr-N-9-decen) at position 3, Synthetic ghrelin analog) [ghrelin analog no. 12, (Sar)S(Dpr-N-9-decen)FLSPEHQKAQQRKESKKPPAKLQPR]			
	47%	2.45 nM			XSXXLSPEHQKAQQRKESKKPPAKLQPR (not fully specified; sarcosine (Sar) at position 1; diaminopropionic acid N-octanoyl (Dpr-N-oct) at position 3; dichlorophenylalanine (PheCl2) at position 4, Synthetic ghrelin analog) [ghrelin analog no. 13, (Sar)S(Dpr-N-oct)(PheCl2)LSPEHQKAQQRKESKKPPAKLQPR]			
	5%	23.3 nM			XSXXLSPEHQKAQQRKESKKPPAKLQPR (not fully specified; sarcosine (Sar) at position 1; diaminopropionic acid N-octanoyl (Dpr-N-oct) at position 3; naphtylalanine (Nal) at position 4; Lys 24 N-palmitoyl (K(N-palm)), Synthetic ghrelin analog) [ghrelin analog no. 9, (Sar)S(Dpr-N-oct)(Nal)LSPEHQKAQQRKESKKPPAK(N-palm)LQPR]			
	169%	0.68 nM	16.3 nM		GSXFLSPEHQKAQQRKESKKPPAKLQPR (diaminopropionic acid (Dpr) bearing octanoyl at position 3, Synthetic ghrelin analog) [Dpr^3ghrelin]			
	19%	6.09 nM			XSXFLSPEHQKAQQRKESKKPPAKLQPR (sarcosine (Sar) at position 1; diaminopropionic acid N-octanoyl (Dpr-N-oct) at position 3; Lys 24 N-palmitoyl (K(N-palm)), Synthetic ghrelin analog) [ghrelin analog no. 7, (Sar)S(Dpr-N-oct)FLSPEHQKAQQRKESKKPPAK(N-palm)LQPR]			
	19%	5.99 nM			[Sar]S[Dap](Decanoyl)FLSPEHQKAQQRK(Palmitoyl)ES [ghrelin analog no. 15, (Sar)S(Dpr-N-dec)FLSPEHQKAQQRK(N-palm)ES]			
	34%	3.38 nM			[Sar]S[Dap](Myristoyl)FLSPEHQKAQQRKES [ghrelin analog no. 18, (Sar)S(Dpr-N-myr)FLSPEHQKAQQRKES]			
	54%	2.1 nM	7.1 nM	36.6 nM	XSXFLSPEHQKAQQRKESKKPPAKLQPR (sarcosine (Sar) at position 1; diaminopropionic acid N-myristoyl (Dpr-N-myr) at position 3, Synthetic ghrelin analog; also called analog 2) [ghrelin analog no. 2, (Sar)S(Dpr-N-myr)FLSPEHQKAQQRKESKKPPAKLQPR]			
